Laboratory results as given in the supplement of paper PMC12042874.
± gives the uncertainty stated by the source.

Experiment: amyloid nucleation score (Sup35N fusion, yeast selection) (log enrichment); library NNK1; higher = more nucleation; inactive = no reads after selection
In short: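 DiMSum was used to calculate nucleation scores as log enrichment of output over input reads, centred on the mode score of non-aggregating sequences. Sequences with fewer than 100 input reads were not scored. Input and output came from Illumina sequencing of plasmid inserts in psi-negative yeast expressing peptides of 20 random codons fused to Sup35N, induced 24 hours with 100 μM copper sulfate and then grown 7 days at 30°C on medium lacking adenine and uracil.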

Substance	amyloid nucleation score
KWGHSENVVVYFDGAFSWVS	0.16 ± 0.6
KWIGIYINFDGYSVGS	7.598 ± 0.044
KWILVRSLESIHKPTL	0.174 ± 0.89
KWLLTDDLRSGISAWWECPL	-0.233 ± 0.62
KWLTFVMDMSDLCYSSFNVN	inactive
KWSPIAGSTMIMEMCH	-1.08 ± 0.83
KWYGILNVVDDRRSIGRYDM	-0.281 ± 0.58
KYDRCYYSRMNPSCVYIPYS	2.47 ± 0.4
KYFGFSVHSLLCYNRSLFLS	-0.055 ± 0.35
KYIRISVDGIRFKEWCEFGS	0.777 ± 0.14
KYKESMYLRLCFRYVWTNYS	0.441 ± 0.61
KYLACILCSKLLTQSNSRNI	7.687 ± 0.058
KYLSYTVVCGLTNDSWHLMH	-0.196 ± 0.46
KYLVLHILHIWMCHRYVWGM	-0.973 ± 0.6
KYPSKSSELSGYEDSRNFVG	0.806 ± 0.62
KYRDLGSFMQSWAARHGTLL	-0.226 ± 0.68
KYYMSLDFWGHALH	2.76 ± 0.15
LACWLTTRNKCILNSLITLV	0.08 ± 1.1
LAFTSLSNLYEDMCYQDWMV	1.82 ± 0.36
LAGNVS	0.503 ± 0.67
LALGPLHSVLRGVINMGYGI	-0.88 ± 1.7
LAMRAMIRNVLFTKSQLHDR	-0.154 ± 0.38

Substance	amyloid nucleation score
LAPGGDWYY	inactive
LAPMDLCGGSVAFR	0.47 ± 0.4
LAPNDGGRALSVDMRGWCDW	inactive
LARDYGFD	0.051 ± 0.3
LATFVWPGHGRV	1.65 ± 0.14
LATGHVFYGFG	-0.116 ± 0.36
LAVDMQRF	0.224 ± 1.4
LAVEWWTNVVYVFYAYFANR	0.001 ± 0.25
LAYSNWALSCGIHIFRVTTS	0.792 ± 0.27
LCAREFVDCEAILVRLWFVY	-1.18 ± 1.1
LCFLTSIQCTALLDHQLVPR	6.17 ± 0.079
LCFLWIGVP	-0.241 ± 1
LCFVRMRYLFESDCPRHRKH	0.384 ± 0.65
LCGEGRFLQTWRSLSFP	-0.865 ± 0.39
LCGIVRKILQTSKRSR	0.063 ± 0.49
LCISARDLNNFGRNHMHFLL	-0.296 ± 0.34
LCKDLAKHHN	4.97 ± 0.056
LCLILVGSY	0.062 ± 0.79
LCNLGMLRLSGMENRINRVG	1.29 ± 0.6
LCQGEKISPVKQHHVYCLGE	0.649 ± 0.85
LCSFKFSVRPLCKKRFKVRV	0.099 ± 0.34
LCSMWEGRGADEMLAICQGA	0.152 ± 0.59

Substance	amyloid nucleation score
LCSNC	inactive
LCTRFWDTMYLSSGYFGFLC	1.03 ± 0.46
LCYAGVVLQYVILDHKRSCD	6.233 ± 0.059
LDIDTKW	-0.204 ± 0.38
LDINDTMYETNCFG	-0.488 ± 0.58
LDKSGSLVPKRKVTLKDKQR	-0.375 ± 0.41
LDLINRMGNVGMLIMDCYKI	0.159 ± 0.43
LDRAVHPGVVSPWSQVTRTM	0.749 ± 0.38
LDRFVYY	1.41 ± 0.69
LDTVYNVSMKKIKVTSIGQC	-0.537 ± 0.47
LEGLRQDEVGRSASKTVKYS	1.18 ± 0.76
LELTC	1.6 ± 0.53
LEMVINSFRELSLAY	-0.212 ± 0.46
LFCDPAFGKHLCFRNAFCWF	0.255 ± 0.23
LFDDS	-0.356 ± 0.46
LFDSLEAVYRSYGKSWACYI	-1.63 ± 0.9
LFDVYN	-0.549 ± 0.49
LFEGHLTSISEPGVVDRSIR	-0.573 ± 1.7
LFESGSRDFLRQKLTFGTVP	0.066 ± 0.7
LFGGFMFLGKWDQLHGHNEC	0.799 ± 0.49
LFGPDLSTRNPGDVSVQSAA	0 ± 0.39
LFGVFGFISVVSFSP	-0.455 ± 1.7

Substance	amyloid nucleation score
LFKNRVRLLLHERSLLPVII	0.469 ± 0.68
LFKYYNWVGTLVTYIMIYVW	-1.62 ± 0.62
LFLKFGGSFAVIFWILVAAV	0.74 ± 0.48
LFLLSTSESCFQCATPANDN	-0.222 ± 0.59
LFNILASFSYFAFYYLLLLS	-0.492 ± 0.8
LFQSA	0.854 ± 0.17
LFRGT	-0.457 ± 0.27
LFRYNDWCAYHLPSPWWGNR	0.112 ± 0.83
LFSIGALY	-0.035 ± 0.2
LFSLNTLCM	0.985 ± 0.51
LFWSET	-0.526 ± 0.81
LFYDDEES	inactive
LGCFGIAATKIRKVDMRLGG	0.729 ± 0.39
LGCLYIA	-0.711 ± 0.44
LGIYNGEASRWYRESTPAQ	-0.443 ± 0.92
LGKPVWVQEAKLDADNLWCV	-0.438 ± 0.49
LGKQAMC	-1.34 ± 2.4
LGLRGKKLRIINAPYTTGRN	-0.64 ± 0.98
LGMSKLIMSNNVFNIFDSHP	0.847 ± 0.9
LGPDSLHLFGMVGSGRLNIL	-0.029 ± 0.88
LGQHRKPSYKHSAKHKLFVD	0.519 ± 0.36
